Target: HLA-A*0201 HLA class I MHC monomer (iTopia Epitope Discovery System, coated on plate) (human)
Assay: overall rank from iTopia EDS and CEM T2 assays on HLA-A*0201

SLLMWITQV (modifications not checked) [reference peptide 513 (NY-ESO-1), …]
RANK F-Score: 2

Source: US20140178394A1
